± gives the uncertainty stated by the source.
Experiment: self-splicing fitness, log relative to wild type (ln ratio); higher = more splicing; Tetrahymena group I intron in knt gene, E. coli kanamycin selection, DiMSum; sequences stand for … in CUCUCU…GGAGGGAAAAGUUAUCAGGCAUGCACCUGGUAGCUAGUCUUUAAACCAAUAGAUUGCAUCGGUUUAAAAGGCAAGACCGUCAAAUUGCGGGAAAGGGGUCAACAGCCGUUCAGUACCAAGUCUCAGGGGAAACUUUGAGAUGGCCUUGCAAAGGGUAUGGUAAUAAGCUGACGGACAUGGUCCUAACCACGCAGCCAAGUCCUAAGUCAACAGAUCUUCUGUUGAUAUGGAUGCAGUUCACAGACUAAAUGUCGGUCGGGGAAGAUGUAUUCUUCUCAUAAGAUAUAGUCGGACCUCUCCUUAAUGGGAGCUAGCGGAUGAAGUGAUGCAACACUGGAGCCGCUGGGAACUAAUUUGUAUGCGAAAGUAUAUUGAUUAGUUUUGGAGUACUCGUGGUCG
Method in brief: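 Pooled colonies went to amplicon sequencing on an Illumina HiSeq 2500 after six replicate transformations. The plates were LB agar with 100 μg/mL carbenicillin, 50 μM IPTG and 0.2% rhamnose, with or without 25 μg/mL kanamycin, incubated overnight at 37°C or 30°C. The E. coli BL21(DE3) library had all eight P1ex-region intron nucleotides randomised, the intron placed in the knt kanamycin-resistance gene on pET-22b(+). DiMSum fitness is the error-weighted combination of replicate fold changes, kanamycin against none, normalised to wild type.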

Row | Sequence | self-splicing fitness (ln) (30 °C) | self-splicing fitness (ln) (37 °C)
1 | UCUCAGCAAUAUUACGUUAU | -2.98 ± 0.095 | -2.8 ± 0.13
2 | UCUCAGCAAUAUUACGUUGC | – | -2.73 ± 0.23
3 | UCUGAGCAAUAUUACGAAAC | -2.45 ± 0.31 | –
4 | UCUGAGCAAUAUUACGACGU | -0.648 ± 0.13 | 0.778 ± 0.13
5 | UCUGAGCAAUAUUACGAGCA | – | -2.23 ± 0.36
6 | UCUGAGCAAUAUUACGAGGG | -4.14 ± 0.27 | -2.5 ± 0.3
7 | UCUGAGCAAUAUUACGAGUC | -2.7 ± 0.41 | –
8 | UCUGAGCAAUAUUACGCACA | – | -1.23 ± 0.49
9 | UCUGAGCAAUAUUACGCAGU | -2.4 ± 0.35 | -1.08 ± 0.21
10 | UCUGAGCAAUAUUACGCCGG | -1.96 ± 0.22 | -0.975 ± 0.24
11 | UCUGAGCAAUAUUACGCGCU | -2.53 ± 0.28 | -1.59 ± 0.3
12 | UCUGAGCAAUAUUACGCGGU | -2.71 ± 0.28 | -2.5 ± 0.28
13 | UCUGAGCAAUAUUACGCUAU | -3.8 ± 0.22 | -3.15 ± 0.28
14 | UCUGAGCAAUAUUACGGAGG | -3.34 ± 0.32 | -1.79 ± 0.27
15 | UCUGAGCAAUAUUACGGCUC | -2.63 ± 0.22 | -2.14 ± 0.24
16 | UCUGAGCAAUAUUACGGUAU | -2.41 ± 0.18 | -2.5 ± 0.44
17 | UCUGAGCAAUAUUACGGUUA | -2.82 ± 0.18 | -2.05 ± 0.14
18 | UCUGAGCAAUAUUACGGUUG | -3.75 ± 0.23 | -3.15 ± 0.3
19 | UCUGAGCAAUAUUACGUAAC | -3.44 ± 0.33 | -1.55 ± 0.2
20 | UCUGAGCAAUAUUACGUAGC | – | -2.04 ± 0.27
21 | UCUGAGCAAUAUUACGUAGG | -0.323 ± 0.087 | -0.306 ± 0.13
22 | UCUGAGCAAUAUUACGUGGC | -3.1 ± 0.25 | -1.94 ± 0.23
23 | UCUGAGCAAUAUUACGUUGC | -3.64 ± 0.28 | –
24 | UCUGAGCAAUAUUACGUUUA | -2.83 ± 0.17 | -2.65 ± 0.19
25 | UCUGAGCAAUAUUACGUUUC | -2.44 ± 0.22 | -0.767 ± 0.21
26 | UCUUAGCAAUAUUACGAAUA | -3.59 ± 0.47 | -0.936 ± 0.17

Row | Sequence | self-splicing fitness (ln) (30 °C) | self-splicing fitness (ln) (37 °C)
27 | UCUUAGCAAUAUUACGAAUU | – | -2.06 ± 0.24
28 | UCUUAGCAAUAUUACGAGAA | -2.37 ± 0.47 | –
29 | UCUUAGCAAUAUUACGAGUG | -0.964 ± 0.065 | -0.162 ± 0.097
30 | UCUUAGCAAUAUUACGAUUC | -2.05 ± 0.44 | –
31 | UCUUAGCAAUAUUACGCACA | -1.04 ± 0.22 | -0.879 ± 0.23
32 | UCUUAGCAAUAUUACGCAGG | -3.45 ± 0.43 | -1.75 ± 0.38
33 | UCUUAGCAAUAUUACGCAUA | -2.4 ± 0.26 | -1.47 ± 0.22
34 | UCUUAGCAAUAUUACGCGCA | -0.966 ± 0.29 | -1.53 ± 0.23
35 | UCUUAGCAAUAUUACGGAUU | -2.71 ± 0.41 | -2.22 ± 0.21
36 | UCUUAGCAAUAUUACGGUUG | -3.34 ± 0.32 | -2.18 ± 0.43
37 | UCUUAGCAAUAUUACGUAAG | -0.27 ± 0.09 | -0.314 ± 0.13
38 | UCUUAGCAAUAUUACGUAUA | – | -3.28 ± 0.3
39 | UCUUAGCAAUAUUACGUCAA | -2.43 ± 0.25 | -2.6 ± 0.44
40 | UCUUAGCAAUAUUACGUGAG | -0.751 ± 0.079 | -0.366 ± 0.14
41 | UCUUAGCAAUAUUACGUGCG | -2.14 ± 0.15 | -1.67 ± 0.2
42 | UCUUAGCAAUAUUACGUUGU | -3.61 ± 0.19 | -1.24 ± 0.14
43 | UCUUAGCAAUAUUACGUUUA | -2.75 ± 0.33 | -2.57 ± 0.32
44 | UCUUAGCAAUAUUACGUUUU | – | -1.8 ± 0.23
45 | UGAAAGCAAUAUUACGACUG | 0.192 ± 0.1 | 0.249 ± 0.12
46 | UGAAAGCAAUAUUACGAGCU | -1.42 ± 0.14 | -0.746 ± 0.17
47 | UGAAAGCAAUAUUACGAGUG | -0.522 ± 0.069 | 0.0623 ± 0.11
48 | UGAAAGCAAUAUUACGAUCU | -0.256 ± 0.083 | 0.425 ± 0.11
49 | UGAAAGCAAUAUUACGAUUA | -0.302 ± 0.065 | 0.211 ± 0.096
50 | UGAAAGCAAUAUUACGCAAG | -2.4 ± 0.15 | -2 ± 0.2
51 | UGAAAGCAAUAUUACGCACA | -0.903 ± 0.15 | 0.683 ± 0.15
52 | UGAAAGCAAUAUUACGCCAG | -0.985 ± 0.12 | -0.807 ± 0.12
